Assay results from publication PMC314469, “Protein Interaction Networks by Proteome Peptide Scanning” (PLoS Biology, 2004).

T1: Yhr016c SH3 (YSC84_YEAST), P32793
T1 chain: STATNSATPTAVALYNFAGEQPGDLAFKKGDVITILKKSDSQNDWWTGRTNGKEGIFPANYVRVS

T2: Boi1 SH3 (BOI1_YEAST), P38041
T2 chain: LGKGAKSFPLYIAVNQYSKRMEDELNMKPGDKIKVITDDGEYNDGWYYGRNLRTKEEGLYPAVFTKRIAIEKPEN

T3: Yfr024 SH3 (LSB3_YEAST), P43603
T3 chain: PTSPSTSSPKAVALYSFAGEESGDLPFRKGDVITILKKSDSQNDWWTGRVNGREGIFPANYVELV

T4: Boi2 SH3 (BOI2_YEAST), P39969
T4 chain: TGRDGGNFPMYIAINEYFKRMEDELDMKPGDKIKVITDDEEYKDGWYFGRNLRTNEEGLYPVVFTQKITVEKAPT

T5: Rvs167 SH3 (RV167_YEAST), P39743
T5 chain: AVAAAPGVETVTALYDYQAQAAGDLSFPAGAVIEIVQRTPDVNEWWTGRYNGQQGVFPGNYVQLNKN


Tests used:
Experiment in all cases: SPOT array
[1] = biological target: T1, Yhr016c SH3 (YSC84_YEAST), P32793
[2] = biological target: T2, Boi1 SH3 (BOI1_YEAST), P38041
[3] = biological target: T3, Yfr024 SH3 (LSB3_YEAST), P43603
[4] = biological target: T4, Boi2 SH3 (BOI2_YEAST), P39969
[5] = biological target: T5, Rvs167 SH3 (RV167_YEAST), P39743

| Binder | normalised SPOT signal, Boehringer light units (BLU); mean over the file's lines of this peptide [1] | normalised SPOT signal, Boehringer light units (BLU); mean over the file's lines of this peptide [2] | normalised SPOT signal, Boehringer light units (BLU); mean over the file's lines of this peptide [3] | normalised SPOT signal, Boehringer light units (BLU); mean over the file's lines of this peptide [4] | normalised SPOT signal, Boehringer light units (BLU); mean over the file's lines of this peptide [5] |
| --- | --- | --- | --- | --- | --- |
| EMIPSSPQRKSVSN [YBR098W 51-64] | 323 | 59 | 2140 | 37.3 | 220 |
| ELDPISPLKVPLTA [YGR166W 276-289] | 160 | 56.8 | 42.4 | 46 | 39.4 |
| ELPPTHPIRLGLAL [YDR099W 164-177] | 203 | 77.1 | 179 | 46.1 | 24.8 |
| ENKPFKPPRRVGSN [YBR073W 41-54] | 8330 | 339 | 23100 | 3.6 | 232 |
| EVSPVEPKRTENER [YDR507C 687-700] | 83.5 | 80.7 | 72 | 41.7 | 47.2 |
| ELEPQHPLRHKSSL [YER027C 53-66] | 333 | 65.2 | 109 | 60 | 38.4 |
| ELPPIKPPRPTSTT [YBL007C 619-632] | 43100 | 54.9 | 57000 | 90.2 | 1900 |
| ERDPNAPKKPLTVF [YDR174W 100-113] | 274 | 75.6 | 94.1 | 34.6 | 59.7 |
| ENAPANPSKALKVK [YHR108W 549-562] | 209 | 21.4 | 34.4 | 34.7 | 68 |
| EVTPKVPERPSRRK [YIR003W 4-17] | 18500 | 5160 | 59100 | 493 | 2090 |
| ETVPTEPTRYNYQN [YER132C 1359-1372] | 53.7 | 112 | 24.9 | 55.5 | 26.9 |
| ENFPIVPLKSVAQD [YAL051W 638-651] | 100 | 94 | 377 | 9.5 | 125 |
| ENYPSPPYKIIILD [YJR068W 127-140] | 86.3 | 160 | 56.9 | 34.9 | 35.7 |
| ENVPLYPSRRNIWE [YHR176W 81-94] | 4510 | 764 | 15000 | 19.2 | 88.9 |
| ERDPNMPKRPTNAY [YDL002C 88-101] | 339 | 125 | 1640 | 31.7 | 64.8 |

Next, values leading:

| normalised SPOT signal, Boehringer light units (BLU); mean over the file's lines of this peptide [1] | normalised SPOT signal, Boehringer light units (BLU); mean over the file's lines of this peptide [2] | normalised SPOT signal, Boehringer light units (BLU); mean over the file's lines of this peptide [3] | normalised SPOT signal, Boehringer light units (BLU); mean over the file's lines of this peptide [4] | normalised SPOT signal, Boehringer light units (BLU); mean over the file's lines of this peptide [5] | Binder |
| --- | --- | --- | --- | --- | --- |
| 105 | 25.1 | 0 | 0 | 19.5 | EVTPEEPSKSIDNK [YML071C 475-488] |
| 211 | 455 | 2200 | 26.1 | 34.8 | ESLPRTPTKGRSTQ [YPR141C 2-15] |
| 149 | 90.2 | 13.7 | 13.5 | 15.1 | ELLPVVPEKFLIAS [YOR273C 415-428] |
| 138 | 51.2 | 923 | 26 | 34.7 | EVIPSWPRRGKVEE [YNL022C 436-449] |
| 124 | 52.7 | 15 | 20.1 | 15.5 | EVTPEEPSKKIRTS [YML071C 500-513] |
| 0 | 85 | 156 | 42.8 | 28.7 | ENLPPSPVRAVNPL [YPR174C 153-166] |
| 5560 | 69.3 | 12200 | 69.2 | 67.1 | EKLPETPDRSKSAS [YLR343W 379-392] |
